The source of these data is US7109317.

For the assay, the target named is endogenous calcineurin (human) (UniProt P63098). As to the kind of experiment: cell-based or functional assay.
endogenous calcineurin (human), sequence (P63098 2-170): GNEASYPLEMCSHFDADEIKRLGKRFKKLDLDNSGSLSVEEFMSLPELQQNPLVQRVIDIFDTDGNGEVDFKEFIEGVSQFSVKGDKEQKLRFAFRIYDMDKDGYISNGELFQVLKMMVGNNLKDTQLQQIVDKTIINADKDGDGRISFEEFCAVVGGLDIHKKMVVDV

FKBP12, sequence (P62942 2-108 limits assumed): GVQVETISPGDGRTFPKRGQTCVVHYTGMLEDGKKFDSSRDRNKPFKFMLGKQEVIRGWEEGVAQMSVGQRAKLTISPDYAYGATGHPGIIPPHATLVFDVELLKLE

On to FKBP12 (from UniProt P62942 2-108), for which the suppression of PMA/ionomycin-induced activation of an NFAT-SEAP reporter, C40-phenyl-FK506 against FK506 stood at 30 fold.
